These results are taken from paper PMC9687980.

For orientation: Kd means a measure of binding affinity in units of concentration. A higher Kd goes with a looser complex. In general, koff refers to the first-order rate constant of dissociation. Read a low koff as a long-lived complex. A word on the kon: it is a measure of how fast the partners come together. High values mean faster complex formation, low ones slower complex formation.

The experiment addresses human Fc fusion angiotensin-converting enzyme 2 (hACE2-Fc) (human) (UniProt Q9BYF1). The experiment can be described thus: BLI.

human Fc fusion angiotensin-converting enzyme 2 (hACE2-Fc) (human), sequence (Q9BYF1 18-740): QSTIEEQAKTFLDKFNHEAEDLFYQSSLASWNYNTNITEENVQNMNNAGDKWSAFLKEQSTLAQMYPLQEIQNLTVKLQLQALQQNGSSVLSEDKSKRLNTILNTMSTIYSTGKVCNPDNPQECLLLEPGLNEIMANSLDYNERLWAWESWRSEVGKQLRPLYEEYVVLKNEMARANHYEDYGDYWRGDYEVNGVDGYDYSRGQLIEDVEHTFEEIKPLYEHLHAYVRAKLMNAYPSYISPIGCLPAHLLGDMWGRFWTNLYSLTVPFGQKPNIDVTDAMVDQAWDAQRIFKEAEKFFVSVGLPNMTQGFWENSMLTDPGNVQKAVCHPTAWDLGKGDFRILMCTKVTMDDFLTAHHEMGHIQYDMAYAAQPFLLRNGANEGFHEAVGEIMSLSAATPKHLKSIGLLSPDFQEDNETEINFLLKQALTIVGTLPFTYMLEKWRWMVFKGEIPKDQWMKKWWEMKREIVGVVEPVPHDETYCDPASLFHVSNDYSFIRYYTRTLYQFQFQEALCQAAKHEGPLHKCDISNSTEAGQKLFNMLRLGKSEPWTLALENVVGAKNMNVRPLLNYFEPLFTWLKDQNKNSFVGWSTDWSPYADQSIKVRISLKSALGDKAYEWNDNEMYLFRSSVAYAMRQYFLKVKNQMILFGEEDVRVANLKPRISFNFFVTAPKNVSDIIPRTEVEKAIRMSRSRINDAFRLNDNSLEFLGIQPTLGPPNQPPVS

On to “MBP-fused spike receptor binding domain of SARS-CoV-2 Omicron BA.1 (MBP-RBDomi) (domain or fragment)”, for which the Kd was determined as 10.1 nM, the koff was determined as 0.00174 s⁻¹ and the kon was found to be 172000 M⁻¹ s⁻¹.
For “spike RBD of SARS-CoV-2 Omicron expressed in a mammalian system (domain or fragment)” the same measures were 7.16 nM, 0.00161 s⁻¹ and 226000 M⁻¹ s⁻¹.
